IntAct's records for PubMed 18571423

molecular target: rbbp7_human RBBP7 (UniProt Q16576)
Sequence (Q16576 whole entry): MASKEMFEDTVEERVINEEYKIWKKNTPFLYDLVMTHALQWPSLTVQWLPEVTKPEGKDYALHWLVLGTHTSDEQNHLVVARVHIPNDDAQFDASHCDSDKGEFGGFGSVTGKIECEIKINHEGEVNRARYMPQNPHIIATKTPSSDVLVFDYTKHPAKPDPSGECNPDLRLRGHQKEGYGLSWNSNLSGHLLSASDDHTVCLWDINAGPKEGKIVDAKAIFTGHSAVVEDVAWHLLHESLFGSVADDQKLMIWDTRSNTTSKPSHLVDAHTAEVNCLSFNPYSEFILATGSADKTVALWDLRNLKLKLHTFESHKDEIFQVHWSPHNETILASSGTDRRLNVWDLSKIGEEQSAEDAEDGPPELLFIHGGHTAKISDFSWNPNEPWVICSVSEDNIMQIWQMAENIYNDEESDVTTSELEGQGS

| effect of a mutation on the interaction | Substance |
| --- | --- |
| disrupting interaction | Histone H4 (Homo sapiens) (from UniProt P62805) I35T;R36S;L38D |
| disrupting interaction | Histone H4 (Homo sapiens) (from UniProt P62805) L38D;R40V;R41N |
| disrupting interaction | Histone H4 (Homo sapiens) (from UniProt P62805) R40V;R41N |
